In the supplement of paper PMC12764529:
± gives the half width of the 95% confidence interval.

Columns and labels:
[1] = folding stability dG unfold (combined trypsin and chymotrypsin); higher = more stable
In short: (§1)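 Designed mini-proteins (under 80 residues, no cysteine) in a PA-tagged cDNA display construct were digested with trypsin and chymotrypsin. Each protease was used at 11 concentrations (threefold dilutions) plus a no-protease condition, followed by sequencing. K50 was inferred by Bayesian fitting of sequencing counts, and unfolding free energy was derived against a sequence-predicted unfolded-state K50 and a shared folded-state K50, per protease or combined. Only designs with AlphaFold2 dimer inter-PAE above 15 were kept.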

[2] = folding stability dG unfold from chymotrypsin proteolysis; higher = more stable
In short: as §1

[3] = folding stability dG unfold from trypsin proteolysis; higher = more stable
In short: as §1

Sequence	folding stability dG unfold [1] [kcal/mol]	folding stability dG unfold [2] [kcal/mol]	folding stability dG unfold [3] [kcal/mol]
SAGGSAGKNKPFPLPILIEAHPDDPEEAAERLKAELEALFPGPIKVEIVEVDPEKGIITAIVTVDGSAGGSA [r15_1024_TrMRF]	1.31 ± 0.096	1.58 ± 0.073	0.985 ± 0.038
SAGGSAGKPVLVRVKLRLEFPGTGELAEAEVVVEADSIEDALDRVLKELTLPDFKAEVLDVKAIPLSAGGSA [r2_320_TrMRF]	2.16 ± 0.13	2.03 ± 0.029	2.1 ± 0.11
SAGGSAGMPLVTAPVTRDPNSDVVTLTVYDPRTGETHTYTSPGSVEEAVEAFREATGLPISEVVLESAGGSA [r15_101_JUSTAS]	1.51 ± 0.099	1.44 ± 0.057	1.45 ± 0.078
SAGGSAGMPPDEPVVKTTVIPTSTAVKDAAGNPLTPEELAAAVKAAYPDVEVSFGPGNTLTITLTRSAGGSA [r15_645_JUSTAS]	1.25 ± 0.091	1.11 ± 0.05	1.33 ± 0.059
SAGGSAGMTITSATEVGTTTFNGGSITHYTLTTPSGKTITGEVDPATGTLTISFPETGLSITIPPKSAGGSA [r15_159_JUSTAS]	1 ± 0.1	0.729 ± 0.19	1.09 ± 0.023
SAGGSAGPEITPPVVVVTFTFKFPDGKTIEIPTTDLEEGEKEIEKIKKPLLEKKNIELVKVTTKPVSAGGSA [r15_140_JUSTAS]	-0.583 ± 0.36	-0.389 ± 0.36	-0.607 ± 0.37
SAGGSAGPKVEVELFPVPPFAPGSEFVLLVKTEDGDVILQRFRVKLEGNEPKIEPLGSIVLKPDELSAGGSA [r15_636_TrMRF]	1.78 ± 0.1	2.09 ± 0.062	1.08 ± 0.036
SAGGSAGPPKPGKIELEFEDPSGGKKYKVDIYIYPNNEVKTKALNPDGTPIPEEEIKKILKKLGLKSAGGSA [r15_872_JUSTAS]	1.29 ± 0.26	1.75 ± 0.12	0.37 ± 0.082
SAGGSAGPSVTVDVTFHPGEGTVDVTVTTEGEVVYGKGTFLNPSTVLVEVYFPGSGKVATLTLPVTSAGGSA [r15_837_TrMRF]	1.73 ± 0.052	1.61 ± 0.07	1.87 ± 0.066
SAGGSAGRVRVELELEIVVDTPEEARALAEELARRFPSIVRVEVEVRRRPDGRLVVRVRLEVELPPSAGGSA [r15_726_TrROS_Hall]	3.31 ± 0.1	3.32 ± 0.077	3.3 ± 0.061
SAGGSAGSFVNLGPEESEGVIVVTYYNEDGTTTTATYTYFPSPKTVSSNGPVTVPPNYKLSVSPLLSAGGSA [r15_198_JUSTAS]	0.818 ± 0.067	1.13 ± 0.054	0.165 ± 0.051
SAGGSAGSKPVTINWKITHPDGTPTTIPFSFPTEEQALEEALKAAEALAKEAGYPDFKIEIDEIIPSAGGSA [r15_698_TrMRF]	0.358 ± 0.091	0.47 ± 0.12	0.0851 ± 0.091
SAGGSAGSMSPEEVAERIRQEALARDPNWTVEVTPLPGPRPVLRLEIYRVDPNSDSVTPVSTLVVGSAGGSA [r15_682_JUSTAS]	0.77 ± 0.086	0.516 ± 0.075	0.857 ± 0.018
SAGGSAIFVVKIEPPNGNPITFMFWFKTPEEAESQVEEIAEQLPPDWKVEVEYIPAEDLKNGKPFFSAGGSA [r15_469_TrROS]	2.2 ± 0.068	2.13 ± 0.043	2.13 ± 0.045
SAGGSAIIIPIKSAEEILDQLENNPPGRPIHVWAPDGYWIKIEIDPGKGPKIKITEIYPMPPEEAKSAGGSA [r15_577_TrROS]	0.896 ± 0.09	0.984 ± 0.062	0.741 ± 0.026
SAGGSAIKIIPNGDGIYIKIWFNNQPHPIPIESPEDAEEQVKSILDKFQKRNGMDIPEDMKVEIYPSAGGSA [r15_496_TrROS]	0.994 ± 0.2	1.12 ± 0.14	0.419 ± 0.054

Sequence	folding stability dG unfold [1] [kcal/mol]	folding stability dG unfold [2] [kcal/mol]	folding stability dG unfold [3] [kcal/mol]
SAGGSAIKLPPGEEYTIIMRNPQNGRPFKVPIKRVDPGQIQIEIENPKNGEKQKFTIPANDIEIVKSAGGSA [r15_381_TrROS]	-0.194 ± 0.16	-0.896 ± 0.8	0.0718 ± 0.074
SAGGSAIKLPPGVKIEYHMHPDGYMTITIEYPNGRPIEIPMRMDPNGPREMTPDQIRDFIKELLKNSAGGSA [r15_780_TrROS]	2.4 ± 0.049	2.33 ± 0.026	2.42 ± 0.038
SAGGSAIWIPVDEIRDLLKEFGIDVTVERHPNDGWVEIEIKMRRPNGKKHPIKIWVHPDGYIRIEPSAGGSA [r15_1051_TrROS]	4.03 ± 0.18	4.42 ± 0.15	3.23 ± 0.16
SAGGSAKATLPEGVKIETKTFKLDGRKYMPFVFEAPDDDWVWVNEMRMDPNGKMEMETIWIPPDAVSAGGSA [r15_986_TrROS]	0.375 ± 0.23	0.384 ± 0.44	0.368 ± 0.32
SAGGSAKEVKIKFTRNPDGTLTMEITFEDGYVIRKTFTVKNGKLTEKVEVFPVKLDPETGKLVLLPSAGGSA [r15_746_TrROS_Hall]	2.84 ± 0.087	2.98 ± 0.033	2.52 ± 0.078
SAGGSAKGLKVTFSHPDVEILSVKSYPGLGLAEVEFRYGDKLYRALVRFEPDDGGIAEATVEPVPGSAGGSA [r15_297_TrMRF]	2.55 ± 0.079	2.844 ± 0.026	1.58 ± 0.024
SAGGSAKIEIPIMIPMPPGQEFDLKIRIPNLWKIKIERIYVSPDPGWIMFRIEIEPVAPPNDPEQMSAGGSA [r15_994_TrROS]	3.34 ± 0.21	3.64 ± 0.071	2.92 ± 0.17
SAGGSAKIKIPKSYTAEILDASYDPETKTVTVKIKLFGKPATATIYPDGTVEIDLPNGKKITIPVGSAGGSA [r15_111_TrMRF]	2.27 ± 0.099	2.62 ± 0.04	1.47 ± 0.083
SAGGSAKIPVMFMIESPEQIIELVDEFAPPGHEVKVKIDNVEPFPMREDGEERPYYMFRVTIEFPPSAGGSA [r15_95_TrROS]	1.78 ± 0.14	1.84 ± 0.16	1.64 ± 0.07
SAGGSAKITIEYDPETGTITIKVELTNEDNGKKVTKEYEIKVDGKLIRIKIDANTGEIVEIEVLPPSAGGSA [r2_331_TrROS_Hall]	3.55 ± 0.15	3.38 ± 0.13	3.52 ± 0.17
SAGGSAKITIHMAPDGMFQIEIKTGGKERTYHVDMPLEQIKDELEDEGLEIKDIEITPFPPDPEDFSAGGSA [r15_576_TrROS]	-0.409 ± 0.16	-0.146 ± 0.095	-1.13 ± 0.93
SAGGSAKITLWIWMPPGNPDKMAEEIADYLAERHGWTVKIKDVQIERDPEDDQVWIPVKIEIQPPPSAGGSA [r15_70_TrROS]	1.91 ± 0.39	1.39 ± 0.31	1.98 ± 0.14
SAGGSAKKDGTITIKIPVKAPKDKNGKVFKPSAEAIKAKFGELGFDFEIEEIKESETYLEIKIKVKSAGGSA [r15_225_TrMRF]	1.53 ± 0.21	1.78 ± 0.093	0.51 ± 0.086
SAGGSAKKEVYKINIKVYNKNGKKVKEIKIELPEELKGKTIEEIAKELAKKLNIEKIEVKIEPVKPSAGGSA [r15_333_TrROS_Hall]	2.78 ± 0.21	3.19 ± 0.1	1.61 ± 0.18
SAGGSAKKPEVTVEIEIVLPKEELEELLEALRKLPGLKVEVEEVEVREDGYVRVKLRITLPPGVKPSAGGSA [r15_441_TrROS_Hall]	3.19 ± 0.12	3.48 ± 0.046	2.39 ± 0.062
